Measured values taken from paper PMC12560177 (Journal of the American Chemical Society, 2025).
Square brackets hold non-standard residues; d marks the D form. Ends that are not written are not given here. Aib = CC(C)(N)C(=O)O

How the values were obtained:
[1] = target: glucagon-like peptide-1 receptor (UniProt P43220)
[2] = target: glucose-dependent insulinotropic polypeptide receptor (UniProt P48546)
glucagon receptor = glucagon receptor (UniProt P47871)
GLP-1R-Rluc8 = GLP-1R-Rluc8 (UniProt P43220)
Sequence of GLP-1R-Rluc8 (P43220 24-463): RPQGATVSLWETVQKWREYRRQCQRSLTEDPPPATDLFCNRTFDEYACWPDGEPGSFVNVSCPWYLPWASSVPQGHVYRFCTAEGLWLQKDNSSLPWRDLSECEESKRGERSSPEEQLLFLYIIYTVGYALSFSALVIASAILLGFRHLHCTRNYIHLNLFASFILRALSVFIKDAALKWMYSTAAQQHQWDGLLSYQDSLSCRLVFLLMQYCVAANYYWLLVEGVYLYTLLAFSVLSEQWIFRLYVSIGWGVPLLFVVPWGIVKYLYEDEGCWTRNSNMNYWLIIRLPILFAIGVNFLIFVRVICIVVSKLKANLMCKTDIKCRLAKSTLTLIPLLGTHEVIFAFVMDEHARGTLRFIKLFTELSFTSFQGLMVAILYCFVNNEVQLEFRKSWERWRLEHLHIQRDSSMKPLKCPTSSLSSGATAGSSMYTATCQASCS

GLP-1R [3] = target: T1, GLP-1R (Homo sapiens, UniProt P43220); conditions: vs GLP-1; stated as an observation, no reference given; cited from earlier work
T1 sequence (P43220 24-463, species assumed): as the sequence (P43220 24-463) above

[4] = overweight and obese individuals, 24-week Phase 2 clinical trial; cited from earlier work
GLP-1R [5] = target: T1, GLP-1R; test: β-arrestin-2 recruitment to GLP-1R measured by BRET; assay type: cell-based; conditions: for Emax: HEK-293T, read-out: β-arrestin-2 Max response (% GLP-1)

Sequence of glucagon-like peptide-1 receptor (P43220 24-463): as above
Sequence of glucose-dependent insulinotropic polypeptide receptor (P48546 22-466): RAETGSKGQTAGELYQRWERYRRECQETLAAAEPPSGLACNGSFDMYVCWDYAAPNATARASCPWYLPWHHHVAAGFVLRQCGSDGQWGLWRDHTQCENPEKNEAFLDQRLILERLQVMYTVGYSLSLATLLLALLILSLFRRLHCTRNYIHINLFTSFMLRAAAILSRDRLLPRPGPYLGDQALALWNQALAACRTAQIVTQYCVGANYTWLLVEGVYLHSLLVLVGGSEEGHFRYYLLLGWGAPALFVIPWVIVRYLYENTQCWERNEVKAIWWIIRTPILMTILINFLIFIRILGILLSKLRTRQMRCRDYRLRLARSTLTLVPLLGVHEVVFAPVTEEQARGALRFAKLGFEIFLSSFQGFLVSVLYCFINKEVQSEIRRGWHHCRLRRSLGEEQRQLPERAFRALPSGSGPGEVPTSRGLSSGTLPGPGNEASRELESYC

Compound	EC50, cAMP-dependent CRE6x-luciferase reporter gene assay, HEK293 cells [1] [pM]	pEC50 of β-arrestin-2 recruitment to GLP-1R, BRET, HEK293T cells (GLP-1R-Rluc8)	Emax (GLP-1R [5]) [%]	also measured
Retatrutide (peptide)	11	7.62		EC50, cAMP-dependent CRE6x-luciferase reporter gene assay, HEK293 cells [2]: 2.2 pM; EC50, cAMP-dependent CRE6x-luciferase reporter gene assay, HEK293 cells (glucagon receptor): 8.2 pM
GLP-1(9–36 amide)				loss in receptor potency of the DPP4-truncated form (GLP-1R [3]): > 1,000 fold
CC[C@H](C)[C@H](NC(=O)[C@H](Cc1ccccc1)NC(=O)[C@H](C)NC(=O)C(C)(C)NC(=O)[C@H](CCC(N)=O)NC(=O)[C@H](C)NC(=O)[C@H](CCCCNC(=O)COCCOCCNC(=O)CC[C@H](NC(=O)CCCCCCCCCCCCCCCCCCC(=O)O)C(=O)O)NC(=O)[C@H](CCCCN)NC(=O)[C@H](CC(=O)O)NC(=O)[C@H](CC(C)C)NC(=O)[C@](C)(CC(C)C)NC(=O)[C@@H](NC(=O)[C@H](CO)NC(=O)[C@H](Cc1ccc(O)cc1)NC(=O)[C@H](CC(=O)O)NC(=O)[C@H](CO)NC(=O)[C@@H](NC(=O)[C@H](Cc1ccccc1)NC(=O)[C@@H](NC(=O)CNC(=O)[C@H](CCC(N)=O)NC(=O)C(C)(C)NC(=O)[C@@H](N)Cc1ccc(O)cc1)[C@@H](C)O)[C@@H](C)O)[C@@H](C)CC)C(=O)N[C@@H](CCC(=O)O)C(=O)N[C@@H](Cc1ccc(O)cc1)C(=O)N[C@@H](CC(C)C)C(=O)N[C@@H](CC(C)C)C(=O)N[C@@H](CCC(=O)O)C(=O)NCC(=O)NCC(=O)N1CCC[C@H]1C(=O)N[C@@H](CO)C(=O)N[C@@H](CO)C(=O)NCC(=O)N[C@@H](C)C(=O)N1CCC[C@H]1C(=O)N1CCC[C@H]1C(=O)N1CCC[C@H]1C(=O)N[C@@H](CO)C(N)=O [Retatrutide]			58 ± 5	maximal weight loss [4]: 24%
H[Aib]QGTFTSDYSKYLDERAAQDFVQWLLDGGPSLRHYLNLVTRQRY-NH2 (C-terminus assumed) [TC0]			90 ± 5	EC50 (GLP-1R [5]): 21400 pM
GEP44 (peptide)	0.64	7.67		
